Reference: the Human Domainome abundance scans (Beltran et al. 2025)

B1: Transcriptional regulator ERG, residues 117 to 197; numbered along this chain, P11308 (parent)
chain: NMTTNERRVIVPADPTLWSTDHVRQWLEWAVKEYGLPDVNILLFQNIDGKELCKMTKDDFQRLTPSYNADILLSHLHYLRE

Variants of: B1
Assay: abundance fitness (aPCA) (normalised: wild type 0, dead -1); higher = more abundant; growth selection in yeast, the domain comes from the species named
Details: Homo sapiens

Abundance fitness, by site and new letter:
K54: W -0.41, N -0.054, F -0.227, Y -0.117, G -0.028, D 0.021, I -0.377, T -0.094, Q -0.118, V -0.238, P -1.08, R -0.049, C -0.112, E 0.072, H -0.071, L -0.103
E51: T 0.026, C -0.127, H -0.113, F -0.277, D -0.087, I -0.319, Q -0.017, N -0.092, M -0.054, R 0.001, G 0.022, A 0.02, P -0.897, S 0, W -0.267, V -0.051, Y -0.026, K -0.025
D58: A 0.039, F -0.096, K -0.063, T -0.072, N -0.169, I 0.055, W -0.132, Q -0.088, P 0.103, L -0.03, H 0.202, S -0.1, Y 0.004, R 0.011, G -0.078, C -0.134
S66: V -0.117, Q -0.012, P 0.03, E 0.03, L -0.239, R -0.057, K -0.056, G -0.025, C -0.005, N 0.11, D -0.185, M -0.295, H -0.107, F -0.039, W -0.28, A 0.058, I -0.178, T -0.12
L63: H -0.18, A -0.238, K -0.213, N -0.571, M -0.003, T -0.476, R -0.153, S -0.46, F -0.071, I 0.097, V -0.092, C -0.215, E -0.691, Y -0.027, P -0.567, W -0.179, G -0.547, Q -0.459
Y67: H 0.033, N 0.138, D 0.199, L -0.03, M -0.14, A 0.016, I -0.16, C 0.127, P 0.036, V 0.019, K -0.097, F -0.242, E 0.037, T 0.113, G 0.078, Q 0.079, S 0.075
T64: D 0.041, K -0.576, F 0.025, S -0.155, C -0.076, N 0.02, W -0.091, V -0.028, M 0.011, G -0.141, Q -0.135, A -0.034, I -0.345, E -0.175
N68: I -0.079, R -0.275, C -0.212, F -0.468, A 0.013, M -0.155, D 0.021, L -0.48, E 0.085, Q 0.085, P 0.017, V 0.008, K -0.266, S 0.011
P65: E -0.088, A 0.025, M 0.048, H 0.135, Y 0.109, N -0.271, I -0.449, F 0.342, L -0.146, D 0.07, Q -0.265, G -0.004, S 0.044, C 0.051, T 0.02, K -0.107, W -0.109, R -0.017
C53: A -0.132, M 0.043, P -1.06, V -0.034, S -0.15, Q -0.269, H -0.574, W -0.561, Y -0.509, I -0.099, D -0.325, G -0.262, F -0.235, N -0.228, T -0.06, E -0.471, L 0, R -0.391
